Test results: patent US20200140522A1 (US Dept. of Health and Human Services, published 2020)
Residue numbers refer to the chain shown, from its start.

Legend:
[1] = target: T1, bovine LPL (lipoprotein lipase) (bovine, UniProt P11151 29-478); assay: cell-based or functional assay
T1 sequence (looked up): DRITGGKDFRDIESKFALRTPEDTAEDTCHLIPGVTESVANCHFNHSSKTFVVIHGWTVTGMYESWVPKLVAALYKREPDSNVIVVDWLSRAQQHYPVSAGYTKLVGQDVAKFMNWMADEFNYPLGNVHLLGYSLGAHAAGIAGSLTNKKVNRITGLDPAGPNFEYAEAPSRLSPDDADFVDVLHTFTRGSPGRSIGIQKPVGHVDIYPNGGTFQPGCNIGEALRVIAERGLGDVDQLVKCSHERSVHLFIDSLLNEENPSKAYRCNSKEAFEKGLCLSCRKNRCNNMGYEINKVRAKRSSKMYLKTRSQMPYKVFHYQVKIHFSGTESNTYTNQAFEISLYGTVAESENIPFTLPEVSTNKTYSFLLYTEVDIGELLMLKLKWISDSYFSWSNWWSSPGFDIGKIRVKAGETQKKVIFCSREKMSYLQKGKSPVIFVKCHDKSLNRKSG

[2] = target: T2, C2thirdhelix Stearylpos17
T2 chain: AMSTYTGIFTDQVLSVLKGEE

C2thirdhelix Stearylpos1 = target: T3, C2thirdhelix Stearylpos1
T3 chain: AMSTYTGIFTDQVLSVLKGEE

C2thirdhelix Stearylpos2 = target: T4, C2thirdhelix Stearylpos2
T4 chain: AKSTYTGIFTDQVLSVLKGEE

C2thirdhelix = target: T5, C2thirdhelix
T5 chain: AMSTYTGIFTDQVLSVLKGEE

Delta13-31-PV = target: T6, Delta13-31-PV
T6 chain: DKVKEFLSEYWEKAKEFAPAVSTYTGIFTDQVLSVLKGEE

Delta4 = target: T7, Delta4
T7 chain: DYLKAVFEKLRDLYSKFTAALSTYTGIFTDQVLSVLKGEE

Delta4b T57F = target: T8, Delta4b T57F
T8 chain: T7 chain with T18F, A19P, L21M

Delta4b-1 = target: T9, Delta4b-1
T9 chain: T7 chain with F7K, A19P, L21M

Delta4b-2 = target: T10, Delta4b-2
T10 chain: T7 chain with L10K, A19P, L21M

Delta4b-3 = target: T11, Delta4b-3
T11 chain: T7 chain with F17K, A19P, L21M

Delta4b = target: T12, Delta4b
T12 chain: T7 chain with A19P, L21M

Delta4c trunc10 = target: T13, Delta4c trunc10
T13 chain: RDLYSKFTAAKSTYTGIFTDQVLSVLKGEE

Delta4c trunc11 = target: T14, Delta4c trunc11
T14 chain: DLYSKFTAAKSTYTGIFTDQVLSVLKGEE

Delta4c trunc14 = target: T15, Delta4c trunc14
T15 chain: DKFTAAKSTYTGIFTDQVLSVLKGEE

Delta4c trunc3 = target: T16, Delta4c trunc3
T16 chain: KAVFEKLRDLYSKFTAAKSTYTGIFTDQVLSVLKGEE

Delta4c trunc4 = target: T17, Delta4c trunc4
T17 chain: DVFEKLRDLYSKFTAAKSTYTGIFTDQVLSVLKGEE

Delta4c trunc7 = target: T18, Delta4c trunc7
T18 chain: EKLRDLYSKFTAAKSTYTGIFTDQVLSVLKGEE

Delta4c = target: T19, Delta4c
T19 chain: T7 chain with L21K

Delta5 = target: T20, Delta5
T20 chain: T7 chain with A5E

Delta6 = target: T21, Delta6
T21 chain: T7 chain with A5E, S15E

[3] = target: variants of Delta5 with the indicated amino acid substitutions

Molecule: recombinant ApoC-III
- free fatty acid (NEFA) production, LPL assay with high TG human plasma (1:50) [1]: 1.7 µM
- free fatty acid (NEFA) production, LPL assay with human plasma [1]: 0.8 µM

B1: bovine LPL (lipoprotein lipase) (protein)
chain: T1 sequence (looked up)
- TG hydrolysis, in vitro LPL assay with apoC-II deficient patient sera [2]: lipidation enhanced the ability of C2thirdhelix to promote TG hydrolysis
- TG hydrolysis, in vitro LPL assay with apoC-II deficient patient sera (C2thirdhelix Stearylpos1): lipidation enhanced the ability of C2thirdhelix to promote TG hydrolysis
- TG hydrolysis, in vitro LPL assay with apoC-II deficient patient sera (C2thirdhelix Stearylpos2): lipidation enhanced the ability of C2thirdhelix to promote TG hydrolysis
- TG hydrolysis, in vitro LPL assay with apoC-II deficient patient sera (C2thirdhelix): lipidation enhanced the ability of C2thirdhelix to promote TG hydrolysis
- TG hydrolysis, in vitro LPL assay with apoC-II deficient patient sera (Delta13-31-PV): promoted TG hydrolysis in vitro in a dose-dependent manner
- TG hydrolysis, LPL assay using Intralipid as substrate (Delta4): worked more efficiently than the native apoC-II protein at concentrations of between about 1 nM to about 10 µM
- TG hydrolysis, in vitro LPL assay, 100 pM to 10 µM peptide (Delta4): promoted TG hydrolysis in a dose-dependent manner
- TG hydrolysis, in vitro LPL assay, 100 pM to 10 µM peptide (Delta4b T57F): promoted TG hydrolysis in a dose-dependent manner
- TG hydrolysis, in vitro LPL assay, 100 pM to 10 µM peptide (Delta4b-1): promoted TG hydrolysis in a dose-dependent manner
- TG hydrolysis, in vitro LPL assay, 100 pM to 10 µM peptide (Delta4b-2): promoted TG hydrolysis in a dose-dependent manner
- TG hydrolysis, in vitro LPL assay with apoC-II deficient patient sera (Delta4b-3): incorporation of proline at position 58 and the stearic acid modification at the lysine residue at position 56 enhanced the TG clearance ability of the exemplary apoC-III mimetic peptide Delta4
- TG hydrolysis, in vitro LPL assay, 100 pM to 10 µM peptide (Delta4b-3): promoted TG hydrolysis in a dose-dependent manner
- TG hydrolysis, in vitro LPL assay with apoC-II deficient patient sera (Delta4b): incorporation of proline at position 58 and the stearic acid modification at the lysine residue at position 56 enhanced the TG clearance ability of the exemplary apoC-III mimetic peptide Delta4
- TG hydrolysis, in vitro LPL assay, 100 pM to 10 µM peptide (Delta4b): promoted TG hydrolysis in a dose-dependent manner
- TG hydrolysis, LPL assay with apoC-II deficient patient sera (Delta4c trunc10): Delta4c and its truncation variants promoted TG hydrolysis
- TG hydrolysis, LPL assay with apoC-II deficient patient sera (Delta4c trunc11): Delta4c and its truncation variants promoted TG hydrolysis
- TG hydrolysis, LPL assay with apoC-II deficient patient sera (Delta4c trunc14): Delta4c and its truncation variants promoted TG hydrolysis
- TG hydrolysis, LPL assay with apoC-II deficient patient sera (Delta4c trunc3): Delta4c and its truncation variants promoted TG hydrolysis
- TG hydrolysis, LPL assay with apoC-II deficient patient sera (Delta4c trunc4): Delta4c and its truncation variants promoted TG hydrolysis
- TG hydrolysis, LPL assay with apoC-II deficient patient sera (Delta4c trunc7): Delta4c and its truncation variants promoted TG hydrolysis
- TG hydrolysis, LPL assay with apoC-II deficient patient sera (Delta4c): Delta4c and its truncation variants promoted TG hydrolysis
- TG hydrolysis, LPL assay using Intralipid as substrate (Delta5): worked more efficiently than the native apoC-II protein at concentrations of between about 1 nM to about 10 µM
- TG hydrolysis, LPL assay with apoC-II deficient patient sera (Delta6): all variants of Delta5 with the indicated amino acid substitutions and Delta6 exhibited the ability to promote TG hydrolysis in a dose dependent matter
- production of free fatty acid (NEFA), LPL assay with Intralipid as substrate (recombinant ApoC-III): apoC-III inhibited the production of free fatty acid (NEFA)
- TG hydrolysis, LPL assay with apoC-II deficient patient sera [3]: all variants of Delta5 with the indicated amino acid substitutions and Delta6 exhibited the ability to promote TG hydrolysis in a dose dependent matter

Molecule: DWLKAFYDKVAEKLKEAFPAMSTYTGIFTDQVLSVLKGEE [apoC-II-a peptide]
- molar ratio of apoC-II-a to apoC-III that overcomes the in vitro inhibition of LPL [1]: 0.1 molar ratio apoC-II-a : apoC-III
